# Experiment: label from the status in PepcDB records
# 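Also: failed if final PepcDB status was selected cloned or expressed and not failed if soluble or beyond.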
row,Sequence,protein production
1,MDGLHVSIVSVALFIILFVIFVFLGFYGSRWRRGDLSKLHEWALAGRRLGPYLMWFLLTADLYTAYTFIAVPSLVLASGPVGFFAAFYSAVTPFIALLFMPRLWTIAKNRGYVTAADFIKDRFNSRILAGLVAITGVVAELPYIALQIVGMQVALLILLLGLGVSNITLASDLSLLVAFIILAAFVFTSGLRGAALTAVYKDIIILGTIISIAIYVPLAFGGFSGAFHNAQTLSSQINLALNNVNKPIFYNYLPNTLAARTAYISLAIGSAFALYLYPHAVNASVSSDSKKSLKLSLALQPFYSIILAVIALFGILVYANSKVVNFIAKTHSGAVAVPALIGYSMPDWFVGIALLGIFIGGLVPAAIMAIGAANLLTRNIIKEFKPNMSPSTESALAKWISTAFKFLALALVFATPSTYAIQLQLLGGIIILQTLPSVFLGLYTSKLNGYALVGGWAGGMFSGIYLTLLANHFGPLKTSSFITPLGPMYIGVLSTLINLAIGLIGTAIAYGAGWRPVSNIRAEEIA,failed
2,MQQALAFVARHGRLGLMVGLGAGLALPGLAAVMRPWIPQLVALLLFLTAFRIGPVDAAGSLADLTRTARRVLVLQLALPILFLLGLRLLGLPVTPLALVLALVLAAPSVTGSANFTILLAQDPAPALRLLILGTALLPLTAIPVFWLLPAFGDPAEVFGAALRLLGVILLAAGCGFALRHWGARQLSDLNRRAMDGLTVIALAVIVIALMSAVRPAMTERPAELAFWLLAAFAINLGGQTLCYLTLRATGGADPVPTSIVAGNRNFALFFVALPSEVTEPLLIFLGCYQFPMYLTPTLMRRLYDPV,failed
3,MLCCMRRTKQVEKNDDDQKIEQDGIKPEDKAHKAATKIQASFRGHITRKKLKGEKKDDVQAAEAEANKKDEAPVADGVEKKGEGTTTAEAAPATGSKPDEPGKAGETPSEEKKGEGDAATEQAAPQAPASSEEKAGSAETESATKASTDNSPSSKAEDAPAKEEPKQADVPAAVTAAAATTPAAEDAAAKATAQPPTETGESSQAEENIEAVDETKPKESARQDEGKEEEPEADQEHA,failed
4,MSKDGLSNDQVSSMKEAFMLFDTDGDGKIAPSELGILMRSLGGNPTESQLKSIITTENLSSPFDFNRFLDLMAKHLKTEPFDRQLRDAFKVLDKEGTGFVAVADLRHILTSIGEKLQPSEFDEWIKEVDVGSDGKIRYEDFIARMVAK,failed
5,PLLDSFKVDHTKMNAPAVRIAKTMLTPKGDNITVFDLRFCIPNKEILSPKGIHTLEHLFAGFMRDHLNGDSIEIIDISPMGCRTGFYMSLIGTPNEQKVSEAWLASMQDVLGVQDQASIPELNIYQCGSYTEHSLEDAHEIAKNVIARGIGVNKNEDLSLDNSLLK,not failed
6,MRRVISIFRKLSAVYCHTGNFAEGIRVCKYALGRFTEMEDKYKCIFTFNMSLYYNYLGEYGKALNAITGFESVIKATYEDRYYKVLLLKADCYYGAERYAESLSIYNKLISITLKDDFNNLCVYYNNMTQVYLRMGKRDMAVNCINTVINNLHNISDDFEALPQIYAELGKSYLMMADNDKSIKYLTIALKLSKDFKYYSVTKDILNELSKIKGNSNKLKLKDEFIILTENMGRSYDSLNHSLVFNIIQYYTRLGDVASINELCEYCKERKVG,failed
7,MRLLVAFAVIYFISISPVCAENTASTINIPTPAIESPLASKSLLLDISLIGQEKLVTVGQHGHILLSNDGKKWQQANVPVQVTLTNVFFLNEQLGWAVGHDATILHSQDGGLNWQVQQYLPLLEKPLFDIYFKNPQQGIAVGAYGQVFRTNDGGSTWQNEFHQEILLADDVEYLNELKAEDEAAYLDEITFILPHFNRLVQDGGSLFLLGETGLLAKSDDFGLTWQQFDNFYQGSFFSLARTKTGNVLVAGLRGHVFRSLNHGSQWDEVPTNTTALLNDIVFANDERIFILGNNGMLLISTDDGESFSKIPQQDGKTLIAGVWFKGQLIAVSDVGIKVVDLSQELEHHHHHH,failed
8,MENAPLLFQLPDDDTLYQALLARDPAYEGFAFVGVKSTGVFCRLTCAARKPKRENTVFFGSIKGCVEAGFRACLRCRPLERAGVQEPWVQTLLEQLGRDPERRWYEDDLVAQGLDPSTVRRAFKRYFGVTFLEMARLRRMGQGMQQLASGEPVIEAQISAGFDSDSGFRHAFSRLAGQPPSNLRGRELLKVDWLQTPIGVMLAVADAQVLHLLEFFDRPALANELQNLQKSSGSSIGFGRFAPIDQIEAELQRYFAGEAVHFATPLAMSASPFTRTVWQALRAIPLGTTCSYAEVARQVGSPSAVRAVARANAANQISIVIACHRVIGADGSLTGYGGGLWRKRWLLEHERRLHHLQGASASGL,failed
9,MLELAAGFICLTSLLTYVNYRFIGLPPTIGVMVTALMFSLLLQGLSFLGYPGLEDRVQQLIGQIDFGDLLMNWMLSFLLFAGALHVNLADLKSYRWPIGLLATFGVLIATTVIGALAYWIFALFGWHVSPLYCLLFGALISPTDPIAVLGVLRTANASKPLKTTIVGESLFNDGTAVVVFTVLLGIAQLGETPTVGETALLFVHEAVGGVLFGGLIGYAVYLMIKSIEQYQIEVMLTLALVIGGSAMASELHVSGPIAMVVAGLIIGNLGRNLAMNDMTRRYMDGFWELLDDMLNALLFALIGMELLLLPFSWQHLIAASLLAVAILLSRFVTVAPAILLLRRWRKVPHGTIRILTWGGLRGGVSVALALALPNGPERDLLLSITYIVVLLSILFQGLTIGKLVNAVTREPQAKDPAGH,failed
10,MDAKHIEKVFVKKVPAKSNKAQVKYPFDENSVNVLIIGLDKASNRSTYDLHRTDTILFLNINFKDKKVKGISIPRDTLTEIYKVGKWDKINSAFGYGGGEKEEGFFYTMETVSKLLGGMPIEYYVGFDLDAVRKVVNILGGVYVNVEVPVKVKTKWVNIDLKPGYQKLNGIETLYYALWRKTPGGDIDRIKRDKELILSVFEQLKESNKIITLPEIYWKIRRHFYTNLSLQQITSLAYFAQNMKKEDIVFESIPGDYFNYMGVSYWKPDYEGIKKLVKDLFGYDIEIDLKMPEKYKYARRIIVKAKKENNISYLEHHHHHH,not failed
11,MRKDTEEVQKSSGKTRKSYVKVKKKRRKSTKQKGPEPKKLDFVKDSWQKGSLEIKKLDFIGDRWQTVSLEPKMLGFVEDPWRKGSLEPKMLDFVEDPWQKGSLEPKMLDIVEDSWQKDSFEAMKLDFAEYNWISIDNRRVSADSKRSSVDSKRSSVDSKRSSVDSKRGSIDSRKFSVDSKRDPVDNKRDSVDSKRFSVDSKRFSVDSRRVSISSKRSSIDSKRSSVDSRKSSGGTLLDFSEDRRSSGEDRDISSLARVRHSRVPWATLMRALGRFKLYLPHIRRYYNLSSRDPLALDKDFLLPREKHLKATVQKSWGNQQPLSKIPYKTLTGHDQTVSSCHFCMDDTRLLSSSYDCTVKLWDAEDGTVICDFEPRPKAPVLECSITADNRRIVASSYDKTVRAWDVETGQLLWKVRHDTFVVCCKFSPNGKYVLSALDVNRGIYLMDPENITSVIHMKAQHQRSITSCCFDPDSQKVASVSMDKSIKIWDVTSRATLFTIQEAHTNAISDCCFTFSGHFLCTSSWDRTIKIWNVHTGEFRNQGACVTLMKGHEGCVSSCCIARDSSFLISGGFDKTVAIWDVGGGYRKLSLKGHEDWVTDVAISNDKKWILSASKDNSMRLWNIEEIDKIPLVSENKRAMGLKVRQCRNCDQLFSVLESDVYSQLSNTCLFCRREKKSLSSSSSSLSLSSLERLCI,failed
12,MIFMNMIFVDREKELQTLMQRLNSPTFELVIVYGRRRIGKTSLILRAISGRNDSVYYYATERNNLERFREVAQRKFPEVRYAREDWESLLHFLRDKVVIIDEFPYLIEEDKSILSTFQRIVDENRDSRTKLILLGSSISVMEDVLSYRSPLYGRRTASLKVGELKFRDLRHLGFSVEEAVKIYGFAGGVPMYLTRVTPPFLDWVNRELKRVDSFLRDEVDFLLRYEFREIGTYKEILRAISMGKNTLAEIRDYVKVGGEISSYIKKLERIELVTREVPVTESVRSKMGRYVIRDNFTNFWFRFVYPNLSLIEEGTYEITEGEYANYLGHVFERICREYVRDRYRVKKVGRQWWKDVEIDVMGLGNVKVAGECKWSEDVNPHSVLANLERKVERLGHTVDRYVVFARSFSTKEKMEKAELVDINDLNSWFMS,failed
13,MAEKEKKTKKKKKKEKHQSSDISFKPSSDVKGLKFGGQIIVKSFTIRRARTFELLKLLSLPSSSSPPLLSTAAYLPTNFTILAHHAWHTLTLGLGTRKSKVVVFVFETEAMKSSVVAAEGGIWPSEIPLGDVNKKMIRKLKNWEMARFKFRKGCITFYVYAVRNAGNEGFAAAEDLKVILQAVVALKDFMDHTAMLVMPHQKSINYSSCPPFAMAH,failed

# From a protein production outcome set (Wang et al. 2014)
